Assay results taken from publication doi:10.1101/580043 (bioRxiv, 2019).
Blank lines part the entries; values can stand above or below the binder they belong to. Where no end group is shown, it is not given here.

Experiments:
[1] = target: MBP-tagged PRG-1 PIWI domain (C. elegans); test: MST
[2] = target: T1, Recombinant full-length MBP-tagged PRG-1 (C. elegans, UniProt P90786 1-824); test: MST
T1 sequence (looked up): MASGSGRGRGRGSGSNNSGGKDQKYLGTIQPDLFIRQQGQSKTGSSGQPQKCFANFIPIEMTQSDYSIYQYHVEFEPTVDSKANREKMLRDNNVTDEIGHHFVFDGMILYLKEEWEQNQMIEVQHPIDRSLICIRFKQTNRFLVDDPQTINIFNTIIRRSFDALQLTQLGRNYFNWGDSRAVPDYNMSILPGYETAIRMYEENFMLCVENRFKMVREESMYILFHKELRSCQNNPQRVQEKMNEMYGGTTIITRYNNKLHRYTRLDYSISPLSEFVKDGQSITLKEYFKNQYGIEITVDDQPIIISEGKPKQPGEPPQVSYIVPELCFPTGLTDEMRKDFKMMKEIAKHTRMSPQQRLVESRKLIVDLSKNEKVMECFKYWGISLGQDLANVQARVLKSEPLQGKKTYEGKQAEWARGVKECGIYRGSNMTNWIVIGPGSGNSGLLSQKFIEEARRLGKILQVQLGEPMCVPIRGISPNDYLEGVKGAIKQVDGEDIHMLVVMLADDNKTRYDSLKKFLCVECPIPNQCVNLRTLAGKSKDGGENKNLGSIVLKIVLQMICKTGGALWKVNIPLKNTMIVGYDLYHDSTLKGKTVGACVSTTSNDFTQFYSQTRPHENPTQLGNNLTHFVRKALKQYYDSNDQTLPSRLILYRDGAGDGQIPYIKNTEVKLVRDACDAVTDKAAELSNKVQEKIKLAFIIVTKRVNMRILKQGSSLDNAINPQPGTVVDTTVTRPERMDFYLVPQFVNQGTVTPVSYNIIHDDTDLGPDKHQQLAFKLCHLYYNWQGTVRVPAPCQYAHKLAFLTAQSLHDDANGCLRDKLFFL

Kd [1]: 1900 nM
B1: DEPS-1 PBS motif peptide (peptide)
chain: NFDNIEEAKNLERRSKIPLKFGEVILWNESDCDHDKRIIL
modifications: also: labelled with atto-488 NHS ester, site not given here

Kd [2]: 855 nM
B2: Recombinant full-length MBP-tagged DEPS-1 (natural protein, C. elegans, UniProt Q9N303 1-619, looked up)
chain: MSERQSKYFDYQGIVISSTGQDNQDSETDLVYLIQAHGKAAPKNIMYGVSKCAFVPTNLERNFDNIEEAKNLERRSKIPLKFGEVILWNESDCDHDKRIILHIKREKPIYEASSSRNGLILKVGGVIQPTSTTSFWTPLCTVTMPETEATRAEPDVWLYAWIRFETTMKSGLDPFNMTATFESFDSCDPSDQARVCEAPWNAGSPDSKFGVWRPDPKPADSDDEIDIEPREGWHLPEDKWAEVIKMQLGLYVGERLLICKELSQFDFIIPLQKPFSRGTDKTLIYPAVGEYFHFSAIWSMQHNGFLIYELQPVPLLRQHVTSVNGNLLTRVVPASIRGLFVDKEGTLGLIDDPHHLLSFFEFHPAGYEFLKAMAEVRAVRTSENKSVRYRIVRTSGMSIFENWLRDTQFVVGPVKGIRINEDTVICAKHPNVYFKIPNNLKEGIPIGGGVQFVGKRQAGVDSEIMITECSPCPAFTCKNYSVSGDTRLFQVYLKPNCDHEQLAESDSMGFVDFRELETPCRGKFLAWVRESITVNDCRRAATIMEVCSTAICPPLIAMSANSSRATSARTTPAGSSIGSRSSIQSRASAATSVSSNRFVGPSSRRTPSGTPQSSTSSRV
modifications: labelled with atto-488 NHS ester
